The results in this text go back to the supplement of paper PMC12042874.

± gives the uncertainty stated by the source.

This data set in a line: amyloid nucleation score (Sup35N fusion, yeast selection) (log enrichment); library NNK2; higher = more nucleation; inactive = no reads after selection. The essentials: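 The nucleation score equals the log enrichment of output over input reads from DiMSum, centred on the mode score of non-aggregating sequences. It was computed only for sequences with 100 or more input reads. The reads came from Illumina sequencing of plasmid inserts from psi-negative yeast expressing Sup35N fused to peptides of 20 random codons, induced with 100 μM copper sulfate for 24 hours and grown 7 days at 30°C without adenine and uracil.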
As for HEVYNKGPT, the amyloid nucleation score entry was “inactive”.

FNVKWMRW came in with an amyloid nucleation score of 5.36 ± 0.066.

As for TIGEVYGYLRSWIYWGSEST, the amyloid nucleation score is 0.154 ± 0.46.

For the substance IDWCFGRRENVGGHVRWRNG, the amyloid nucleation score came to 1.48 ± 0.3.

Substance IVVKFCWCVGQSRYTGMSTN yielded an amyloid nucleation score of 6.71 ± 0.052.

Turning to TFMFDHRIGISDGLSTIMVI, the amyloid nucleation score came out at 0.923 ± 0.81.

For the substance FMMIRV, the amyloid nucleation score entry is “inactive”.

GTFIGVNLN: the amyloid nucleation score result was “inactive”.

Regarding ITSLCYNVREFFWGRYVSRV, the amyloid nucleation score result was “inactive”.

The substance SCRRWHLFLGWCIDVVESIY registered an amyloid nucleation score of 1.56 ± 0.13.

SVLELYRTSIFYLRLVSNLL returned an amyloid nucleation score of 3.52 ± 0.079.

VWYRLTDAVYKRLTFLDII registered an amyloid nucleation score of -0.416 ± 0.56.

LRNMPRVQQVCPYFINVRGK: the amyloid nucleation score was 2.25 ± 0.082.

Substance GHYLYGFSKNPASENLNAFQ yielded an amyloid nucleation score of -1.68 ± 0.75.

For the substance INQKDRRGNPYY, the amyloid nucleation score was -0.042 ± 0.79.

As for NVYVESSWVLARVIWRFYFD, the amyloid nucleation score was -0.722 ± 0.62.

NRSIVYGYFQLYENFNWPFS registered an amyloid nucleation score of 0.913 ± 0.19.

As for DRGECYDLIGLCHSPVCCYP, the amyloid nucleation score was -0.038 ± 0.42.

For FFRGDVQYWRLILKYLCLLM, the amyloid nucleation score is -1.28 ± 0.49.

Regarding LATKTLSMSLESICRNTVAF, the amyloid nucleation score entry is “inactive”.

On to NWLQFF, for which the amyloid nucleation score stood at 0.966 ± 0.13.

IHLRWPMKRLVYTYCFYFYS: the amyloid nucleation score is -0.788 ± 0.76.

The substance AVVFGRGPSGYTHPMFRWPC gave an amyloid nucleation score of -0.754 ± 1.1.

In turn, TQDDAHQVRGQCVPSENIGP displayed an amyloid nucleation score of 1.96 ± 0.21.

For the substance VDRFFLEARCLELTSQ, the amyloid nucleation score is 0.34 ± 0.5.

ILYLGHN yielded an amyloid nucleation score of -1.61 ± 0.64.

GDFLWNLWVYHNY returned an amyloid nucleation score of 1.05 ± 0.17.

Substance GTTWRRINECCSRANKMAPV gave an amyloid nucleation score of 0.029 ± 0.35.

Regarding QIFLIKIGAFVLLLTVQ, the amyloid nucleation score was -1.34 ± 0.54.

For the substance GLNLSREYYNLFEVEVHADT, the amyloid nucleation score was -0.178 ± 0.55.

With TLGREVSKVQNATSFLPMQA, the amyloid nucleation score worked out at 0.926 ± 0.29.

For DVDSCW, the amyloid nucleation score turned out to be 0.554 ± 0.43.

Substance VGLVMHGIVLCLMLSHMSWR had an amyloid nucleation score of 0.354 ± 0.41.

For YGDYMFHPETAVSL, the amyloid nucleation score came to 4.49 ± 0.064.

Consider RKLGNLLPPEY, for which the amyloid nucleation score turned out to be 0.499 ± 0.35.

SLAFYTTYNNKILGNS gave an amyloid nucleation score of 3.08 ± 0.069.

Regarding SVDGMLSVSVLVNDVVKTPL, the amyloid nucleation score is 0.309 ± 0.22.

FNYWPYVLNWWELLYQDDAT came in with an amyloid nucleation score of 1.11 ± 0.23.

In turn, YMFYPNCRSRC gave an amyloid nucleation score of 0.59 ± 0.15.

Regarding GERRTSLVVKYGRVAGYTYN, the amyloid nucleation score is -0.273 ± 0.62.

On to WSCNRNCSIFDR, for which the amyloid nucleation score was -0.373 ± 0.45.

Consider SDHLCRYV, for which the amyloid nucleation score is -0.095 ± 1.1.

CFNIQNFELNRVMNLFYCRY displayed an amyloid nucleation score of 6.37 ± 0.075.

On to CFRRKGALSLIACRW, for which the amyloid nucleation score is -0.03 ± 0.46.

Turning to MPQSYFLGSRIKRFKKSRLV, the amyloid nucleation score is 0.496 ± 0.37.

Take YRGINGTTGFQLWAPA: the amyloid nucleation score result is “inactive”.

CVSSRDRG registered an amyloid nucleation score of 0.439 ± 0.27.

Consider TMFASHFCWYALYYVCILNF, for which the amyloid nucleation score stood at 0.066 ± 1.

For the substance GVFASSLLVFQLFFISPSNG, the amyloid nucleation score stood at 6.181 ± 0.028.

The substance IYCLATVMDMICVYGWICAW came in with an amyloid nucleation score of 0.049 ± 0.34.

In turn, CCILVSWFGIHSRCGVRCAR had an amyloid nucleation score of 0.877 ± 0.3.

Take PFLAFRGVWNFGL: the amyloid nucleation score was determined as 5.1 ± 0.068.

Take KSNLCLNVHGSLGICPTHDL: the amyloid nucleation score was 0.178 ± 0.37.

In the case of SGVIEIMFEKSHRLHCCLFC, the amyloid nucleation score was determined as 1.08 ± 0.41.

Consider TLHLWGSK, for which the amyloid nucleation score was determined as 1.38 ± 0.42.

For the substance YSLNWVQWEWELVCKWQGSL, the amyloid nucleation score is 0.143 ± 0.35.

Take ISGFRPSAYWSVLNWNSSL: the amyloid nucleation score is -1.78 ± 1.1.

As for TVYSGILKSY, the amyloid nucleation score is -0.574 ± 1.

As to LILTFLEWNLFFYSFNIFTY, the amyloid nucleation score amounted to 5.39 ± 0.078.

The substance CNVWDVSGDTFVTYGKDDRG yielded an amyloid nucleation score of 0.275 ± 0.25.

Regarding GCLRGIGIGGCVGCLRRILF, the amyloid nucleation score entry is “inactive”.

As to SCNGCSSMRDIFIFHGLLHN, the amyloid nucleation score came to 7.165 ± 0.033.

CSQIRFGRADRLNETSIKLV: the amyloid nucleation score came to 0.333 ± 0.54.

For the substance MDNNVNNRSPFLICRMMDNI, the amyloid nucleation score result was “inactive”.

On to RLFTWIFPTGNTGF, for which the amyloid nucleation score was found to be 8.831 ± 0.074.

In turn, EDVYKRTQRDWDCLILYQRY registered an amyloid nucleation score of -0.765 ± 0.76.

Substance HLPGYSPIDCRKGLVLGRCT returned an amyloid nucleation score of 0.027 ± 0.54.

On to RWSFRLSTAIQGQPWSTPGD, for which the amyloid nucleation score came out at 5.95 ± 0.06.

For the substance MLKSHVI, the amyloid nucleation score was -0.374 ± 0.32.

Regarding RLDWREVHWLVRKTLL, the amyloid nucleation score worked out at 0.648 ± 0.16.

For the substance YAIICKPLDDPLRKGTRWRR, the amyloid nucleation score was 0.477 ± 0.4.

GVRHGHTRSVGYFSVSYTSL: the amyloid nucleation score was -1.05 ± 0.54.

For AWFCREKGNGFFFM, the amyloid nucleation score result was “inactive”.

RVPIWRANIGKGSSIMPIFC registered an amyloid nucleation score of 0.009 ± 0.76.

LYSRSTSILDERWSTVIILL: the amyloid nucleation score is 2.5 ± 0.23.

Turning to RSQTSWLKDLWQRSLTSDCS, the amyloid nucleation score was 4.62 ± 0.059.

Regarding IYTLP, the amyloid nucleation score result was “inactive”.

For LNVVARMFYLSLSSSGNWSG, the amyloid nucleation score was -0.849 ± 0.64.

For the substance SVVYSFTRMPVGIFLMISEL, the amyloid nucleation score is -0.552 ± 0.35.

The substance VCTWYRVAIDRRINIS yielded an amyloid nucleation score of 1.96 ± 0.066.

LLHNIDVRTSRME gave an amyloid nucleation score of -0.846 ± 0.44.

Take VYTVVYGYNWISCDHFSWDT: the amyloid nucleation score is 7.47 ± 0.08.

Substance FGAFVYWVFSIAYTLSRGSR gave an amyloid nucleation score of -1.03 ± 0.6.

With SYVAFLSTTRASSMI, the amyloid nucleation score entry is “inactive”.

Regarding LQNFRCTGCVLFCMHICPAM, the amyloid nucleation score came to 4.84 ± 0.075.

In turn, NYIWVLGYSEVGNTIMYTYH displayed an amyloid nucleation score of 6.224 ± 0.05.

FQSDLMINIK gave an amyloid nucleation score of -0.496 ± 0.56.

The substance KEHGMESRPSWLTFSIYLVG registered an amyloid nucleation score of 0.428 ± 0.56.

The substance YCMLCQGWDGICLPEVSAVW registered an amyloid nucleation score of 0.146 ± 0.29.

In turn, TFAQYPSLGNSFSGWGYCVK gave an amyloid nucleation score of -2.02 ± 0.75.

KLMYLKLK displayed an amyloid nucleation score of -0.038 ± 1.1.

RASASNR showed an amyloid nucleation score of -0.559 ± 0.36.

In turn, KHRWII yielded an amyloid nucleation score of -0.287 ± 0.3.

On to NLIFI, for which the amyloid nucleation score result was “inactive”.

Turning to GMRADSYCVRVGWFLCQNIN, the amyloid nucleation score came out at 7.002 ± 0.07.

On to NSSWSAPSLCLCM, for which the amyloid nucleation score came out at 9.527 ± 0.045.

LMKLNSTLSFDYFPLT displayed an amyloid nucleation score of -0.166 ± 0.65.

LDILIYLKILDISFGNESCM showed an amyloid nucleation score of 0.002 ± 0.17.

In turn, KCRISAMICDKAIFRVKRAC gave an amyloid nucleation score of 1.13 ± 0.4.

In turn, SKVRLQSGYTKHERKNFHWL registered an amyloid nucleation score of -0.001 ± 0.34.

Consider FESTAGTDKLRTEHLDPFAD, for which the amyloid nucleation score result is “inactive”.

In the case of SLEGKSWGCSTSNSLKGDKG, the amyloid nucleation score was -0.06 ± 1.1.

Substance VREVDILYYC gave an amyloid nucleation score of 0.418 ± 0.48.

As to IEPKHWIYTSGGLTRGRLYG, the amyloid nucleation score was found to be 0.073 ± 1.1.

For the substance FSKLVSIYFWGSGWWFCQWA, the amyloid nucleation score is -0.532 ± 0.64.

With CRRTFDSLIS, the amyloid nucleation score is -0.74 ± 0.78.

VILYNGFDLSGSD returned an amyloid nucleation score of 0.286 ± 0.44.

Take FYMMFMNLCFIYYCVLMEGY: the amyloid nucleation score entry was “inactive”.

AYGVIGWCWSYGERNWVHVR registered an amyloid nucleation score of 0.377 ± 0.49.

The substance SARFIIIWNWALSPRPRRCE returned an amyloid nucleation score of 7.561 ± 0.041.

With TTMWYTS, the amyloid nucleation score is -0.837 ± 1.1.

In turn, LAGRC returned an amyloid nucleation score of 0.968 ± 0.56.

CHCMLIG showed an amyloid nucleation score of 3.46 ± 0.066.

For the substance PHSRNRFLMFA, the amyloid nucleation score is -0.488 ± 1.

Regarding IVSLLLRQSQ, the amyloid nucleation score was determined as 4.41 ± 0.061.

The substance GPDLESFLRVIMQNFHDTKK registered an amyloid nucleation score of -1.54 ± 0.41.

Regarding LGYSLAACNQETGNDRYMAR, the amyloid nucleation score worked out at 0.121 ± 0.34.

Regarding RDMLRQMNSYQEYLFVRLDN, the amyloid nucleation score was -0.763 ± 1.1.

Consider TRDNST, for which the amyloid nucleation score came out at 0.32 ± 0.53.

In the case of VGVFNFAGTTTSVGVNVSYT, the amyloid nucleation score was found to be 2.78 ± 0.1.

As for HHKLLGWFDVEKGMPVRLWA, the amyloid nucleation score is 0.148 ± 0.43.

Substance VEYINWRFIRNTYSVE had an amyloid nucleation score of 2.14 ± 0.12.

Substance SNIYLVPRFIWP registered an amyloid nucleation score of -0.338 ± 0.61.

FRFRSNSMSFHNADISLLSV: the amyloid nucleation score entry was “inactive”.

Substance NATCA displayed an amyloid nucleation score of -1.01 ± 0.45.

As to FKPLGTTEGIYTPVMYSYRG, the amyloid nucleation score is -0.6 ± 0.27.

For the substance RNALLCADLTPLAPLNLFCD, the amyloid nucleation score was -0.636 ± 0.76.

VNWFRLWRTSQLLGRMMLCL had an amyloid nucleation score of 0.427 ± 0.56.

GRVNLDRCSSWVGWFVGCLL returned an amyloid nucleation score of -1.09 ± 0.78.

The substance TSPSYVTSCYRFVKEIDHWK displayed an amyloid nucleation score of -1.29 ± 1.1.

Turning to ALNGFVYALLAGPGQRLIKP, the amyloid nucleation score was 1.36 ± 0.53.

The substance CFRDTFERSFKFLERPNIMH returned an amyloid nucleation score of 1.26 ± 0.19.

Consider CTVCITKGWLMHVWYYAYRW, for which the amyloid nucleation score turned out to be 0.902 ± 0.22.

LLRSLNLVG came in with an amyloid nucleation score of 0.288 ± 0.65.

NDSSLCSSVRPIRMREEFDK: the amyloid nucleation score was -0.099 ± 0.25.

The substance AIVYDH showed an amyloid nucleation score of -0.291 ± 0.63.

HPMQLLTSAQIKG had an amyloid nucleation score of 0.863 ± 0.41.

With RSARDYSVLKSRILSSAGLG, the amyloid nucleation score was 1.32 ± 0.39.

Consider VLESYFDTYM, for which the amyloid nucleation score was -2 ± 0.76.

CWVRISDLCLYKFVGVPMSV displayed an amyloid nucleation score of 0.312 ± 0.8.
